Results from patent US20130295112A1 (AbbVie / Abbott, published 2013).

B1: PG110 (humanized anti-NGF antibody, Hu-alphaD11 variable regions with Ser-to-Pro hinge-mutated human IgG4 constant region and human kappa light chain) (antibody, V domains shown)
VH: EVQLVESGGGLVQPGGSLRLSCAASGFSLTNNNVNWVRQAPGKGLEWVGGVWAGGATDYNSALKSRFTISRDNSKNTAYLQMNSLRAEDTAVYYCARDGGYSSSTLYAMDAWGQGTLVTVSS
VL: DIQMTQSPSSLSASVGDRVTITCRASEDIYNALAWYQQKPGKAPKLLIYNTDTLHTGVPSRFSGSGSGTDYTLTISSLQPEDFATYFCQHYFHYPRTFGQGTKVEIKR
notes: expressed in CHO cells; also called PG110 antibody; PG110 mAb

Legend:
[1] = target: T1, recombinant rat beta nerve growth factor (rat, UniProt P25427 122-241); test: cell-based or functional assay
[2] = target: recombinant human beta nerve growth factor (human) (UniProt P01138); test: cell-based or functional assay
[3] = target: T2, human neurotrophin 4 (NT4) (human, UniProt P34130 81-210); test: ELISA, plates coated with human NT4, PG110 titrated, fluorescence read-out
T2 construct: Bought protein coated on ELISA plates
T2 sequence (looked up): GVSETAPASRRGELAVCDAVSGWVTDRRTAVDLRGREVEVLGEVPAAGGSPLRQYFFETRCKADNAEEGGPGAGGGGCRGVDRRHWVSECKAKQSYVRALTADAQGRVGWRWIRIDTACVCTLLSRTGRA
Description: (§1) The selectivity profile of PG110 binding to human neurotrophins was determined using an Enzyme-Linked ImmunoSorbent Assay (ELISA) binding assay. ELISA plates were coated with 100 ng/well of either human NGF (R&D Systems, Cat. No. 256-GF), brain-derived neurotrophic factor (BDNF) (R&D Systems, Cat. No. 248-BD), neurotrophin 3 (NT3) (R&D Systems, Cat. No. 267-N3) or neurotrophin 4 (NT4) (R&D Systems, Cat. No. 268-N4). PG110 was added to neurotrophin-coated wells in the concentration range 3 pM-3 nM. After washing (PBS in 0.5% (v/v) Tween 20, pH 7.3), PG110 binding was detected using a biotinylated anti-human IgG antibody (Rockland Immunochemical Inc., Cat. No. 609-1602) coupled with streptavidin-linked alkaline phosphatase (Sigma Aldrich, Cat. No. S2890), followed by development of a color reaction by addition of 4-methylumbelliferyl phosphate (Sigma Aldrich, Cat. No. M3168). The reaction product was quantified using a fluorimeter (excitation at 360 nm; emission at 440 nm).

[4] = target: T3, human brain-derived neurotrophic factor (BDNF) (human, UniProt P23560 129-247); test: ELISA, plates coated with human BDNF, PG110 titrated, fluorescence read-out
T3 construct: Bought protein coated on ELISA plates; also called human BDNF
T3 sequence (looked up): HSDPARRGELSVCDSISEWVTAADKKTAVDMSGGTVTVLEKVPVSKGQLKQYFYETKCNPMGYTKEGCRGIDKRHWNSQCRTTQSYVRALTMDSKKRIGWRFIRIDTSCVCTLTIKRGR
Description: as §1

[5] = target: T4, human neurotrophin 3 (NT3) (human, UniProt P20783 139-257); test: ELISA, plates coated with human NT3, PG110 titrated, fluorescence read-out
T4 construct: Bought protein coated on ELISA plates
T4 sequence (looked up): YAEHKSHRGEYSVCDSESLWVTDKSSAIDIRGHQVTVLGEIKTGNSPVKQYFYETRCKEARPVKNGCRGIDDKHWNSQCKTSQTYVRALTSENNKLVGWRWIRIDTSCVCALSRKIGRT
Description: as §1

[6] = target: T1, recombinant rat beta nerve growth factor; test: SPR (BIAcore), rrNGF immobilised on CM5 (60 RU), PG110 as analyte, 37 C, 1:1 Langmuir, mean of 3
Description: BIAcore analysis was used to evaluate the binding kinetics of the interaction between PG110 and either recombinant rat NGF (rrNGF) or recombinant human NGF (rhNGF).
Recombinant human beta nerve growth factor (rhNGF) (R&D Systems, Cat. No. 256 GF/CF) or recombinant rat beta nerve growth factor (rrNGF) (R&D Systems, Cat. No. 556 GF/CF) was immobilized covalently on CM5 sensor chips (GE Healthcare, formerly Biacore AB, Uppsala, Sweden) via primary amine groups using the amine coupling kit (GE Healthcare), with HBSEP (10 mM 4-(2-hydroxyethyl)-1-piperazineethanesulfonic acid (HEPES), 150 mM NaCl, 3 mM ethylene-diamine-tetraacetic acid (EDTA) and 0.005% Tween® 20, pH 7.4) as running buffer. The sensor chip surface was activated by injection of a mixture of 400 mM N-(3-Dimethylaminopropyl)-N′-ethylcarbodiimide (EDC) and 100 mM N-Hydroxysuccinimide (NHS) (1:1, v/v) for 7 minutes at a flow rate of 10 μl/min. β-NGF (rh or rr) was diluted to 200 ng/ml in 10 mM sodium acetate pH 4.0 and the diluted solution was injected over the activated surface for various times to yield different surface densities. For quantitative interaction analyses, a surface density of 60 RU was prepared by injection of 50 μl diluted β-NGF (contact time 5 minutes). Non-reacted NHS esters were deactivated with 70 μl (contact time 7 minutes) ethanolamine solution (1 M, pH 8.5).

[7] = target: T1, recombinant rat beta nerve growth factor; test: cell-based or functional assay; remark: listed apart in the source
[8] = target: T1, recombinant rat beta nerve growth factor; test: cell-based or functional assay; remark: listed apart in the source
[9] = target: recombinant mouse NGF (mouse, UniProt P01139 122-241, limits assumed); test: cell-based or functional assay
Chain of recombinant mouse NGF (P01139 122-241 limits assumed): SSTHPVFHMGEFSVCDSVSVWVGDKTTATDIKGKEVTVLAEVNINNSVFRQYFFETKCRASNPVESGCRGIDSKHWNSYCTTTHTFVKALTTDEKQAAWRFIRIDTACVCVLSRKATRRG

T1 sequence (P25427 122-241 limits assumed): as the sequence (P01139 122-241 limits assumed) above, with A40G, R50K, S61P, E94D, T117A counted along it
Chain of recombinant human beta nerve growth factor (human) (P01138 122-241 limits assumed): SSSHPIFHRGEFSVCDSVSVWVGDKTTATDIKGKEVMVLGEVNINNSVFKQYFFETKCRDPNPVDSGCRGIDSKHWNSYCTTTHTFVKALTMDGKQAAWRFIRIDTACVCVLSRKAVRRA

Row | Molecule | IC50, TF1 cell proliferation mediated by rat NGF (MTT), geomean, n=3; Batch 1 [1] | IC50, TF1 cell proliferation mediated by rat NGF (MTT), n=1; Batch 2 [1] | IC50, TF1 cell proliferation mediated by human NGF (MTT), geomean, n=3; Batch 1 [2] | IC50, TF1 cell proliferation mediated by human NGF (MTT), n=1; Batch 2 [2] | binding result [3] | binding result [4] | binding result [5] | Kd [6] | koff [6] | kon [6] | IC50, TF1 cell proliferation mediated by rat NGF (MTT), geomean, n=2 [7] | IC50, TF-1 cell proliferation stimulated by 10 ng/ml rat recombinant NGF (MTT), geomean, n=5 [8] | IC50, TF-1 cell proliferation stimulated by 10 ng/ml mouse recombinant NGF (MTT), geomean, n=3 [9]
1 | rat αD11 antibody (precursor of PG110) | 0.0448 µg/mL | 0.0549 µg/mL | 0.0637 µg/mL | 0.107 µg/mL | – | – | – | – | – | – | – | – | –
2 | B1 | – | – | – | – | no binding | no binding | no binding | 0.092 nM | 1.5e-05 s⁻¹ | 170000 M⁻¹ s⁻¹ | 0.0262 µg/mL | 0.0278 µg/mL | 0.0308 µg/mL
